Test results as given in article PMC12422735.

Test system: Δ40p53β (TS, purified)
Test: SPR
Conditions: Hill slope fit; SPR: 25 mM HEPES pH 7.5, 200 mM NaCl, 0.5 mM TCEP, 0.005% Tween-20, 20 °C; pull-down: 50 mM HEPES pH 7.5, 200 mM NaCl, 0.1% Tween-20, 0.5 mM TCEP, 4 °C

## p21 RE 20 bp
  binding signal (fold lower affinity than DBD-OD): 280
